System: MS2 coat protein
Experiment: apparent KD of MS2 coat protein; designed switch direction (-1 OFF switch, 1 ON switch): -1; higher = weaker reporter binding
Method in brief: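 Three titration conditions were used: no input, 200 uM small-molecule ligand, and an oligonucleotide input. In each, SNAP-549-labelled MS2 coat protein was raised from 0.7 or 1.5 nM, doubling, to 3 µM over designed RNA switches transcribed on Illumina chips by stalled E. coli RNA polymerase. Curve fits of normalised cluster fluorescence gave values whose per-design median over clusters is the apparent KD.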

[1] = input ligand: microRNA oligo, concentration not stated
[2] = Eterna round: R95, input ligand: FMN 200 uM
[3] = Eterna round: R95, input ligand: microRNA oligo, concentration not stated
[4] = Eterna round: R95, input ligand: none

Sequence	apparent KD of MS2 coat protein (input ligand: FMN 200 uM) [nM]	apparent KD of MS2 coat protein [1] [nM]	apparent KD of MS2 coat protein (input ligand: none) [nM]	apparent KD of MS2 coat protein [2] [nM]	apparent KD of MS2 coat protein [3] [nM]	apparent KD of MS2 coat protein [4] [nM]
AUUCCAACUUGAGGAUAUUAGUGGAACAGCCACUGAGAAGGCAGAUAACACCCUCAUAAACAUGAGGAUCACCCAUGUAGGAGA [Eternabot solution 44] (Eterna round: R96, puzzle: Exclusion NG 1)	132	78.1	86.3	–	–	–
AUUCGGAUAGGAUAUACUUGAGGAUCACCCAAGUGUUUGAACUAUCGUGAUCUGAAGAGUAGAAGGAUCAUCAU [Atquedzaed] (Eterna round: R97, puzzle: Exclusion 3)	176	–	90.7	–	–	–
AUUGAUAGCACAGGAUAUUGAGAUUUGAAUUGACAAGAAGGGUGUACAUGAGGAUCACCCAUGUAAUGGUUGCCUCGUUGAUUA [JR_ExcNG1_Sub004] (Eterna round: R96, puzzle: Exclusion NG 1)	1070	125	148	–	–	–
AUUGAUAUUGAGGAUAUGCUUUUAUUUGUACUAGCAGAAGGCGAUACAUGAGGAUCACCCAUGUUUAUGGAAGU [JR_E6_Sub088] (puzzle: Exclusion 6)	–	–	–	50.5	35.6	29.4
AUUGUAUGAGGAUAUACACCAGUGGGAGUGUCUUGCGUGAUACAUGAGGAUCACCCAUGUAGAAGGCGUACUAC [Eternabot (L2) Solution 90] (Eterna round: R97, puzzle: Exclusion 2)	36.9	–	16	–	–	–
AUUGUUUAUGUAGGAUAUGCCUGGCGUGCCUUUGCAGAAGGACAUGAGGAUCACCCAUGUAUUGCGGUCUGCGUUCAGAUCGCC [salish99_ExNG1_r4_035] (Eterna round: R96, puzzle: Exclusion NG 1)	27.6	16.7	24.1	–	–	–
AUUUAAACAUAGGAUAUCGAAUUUAUCAUUUAACGAGAAGGAUGAACAUGAGGAUCACCCAUGUGGUAUCAUGG [Mat - Exclusion 6 - JL Mod - D4] (puzzle: Exclusion 6)	–	–	–	398	279	368
AUUUAACAUGAGGAUCACCCAUGUGAGGAUAUGCGAGUAUAGACUUCGGUCUGAUAGAGCAGAAGGCGCAGAUA [EX1 #8] (Eterna round: R97, puzzle: Exclusion 1)	67.7	–	55.9	–	–	–
AUUUAGAGAGGAUAUAUAUUUUAAAACAUGAGGAUCACCCAUGUAAUUUUAUGGGAGUAAAUAGAAGGCUCAUUUA [JMFs Solution 2] (puzzle: Exclusion 5)	–	–	–	54.3	52.8	53.1
AUUUAGCAAGUCAGAUCCUACAUGAGGAUCACCCAUGUUGUUCGUCUUAUUUGAAGACAACACAAAAGUGUUGUCUU [Omei Mir OFFv1 B5] (Eterna round: R97, puzzle: Sensor, turn-off variant 1)	79.9	–	77	–	–	–
AUUUAUGGAGGAUAUACUUGAGGAUCACCCAAGUGGAGUCCCGUUUGGGCGGUAAAUAGUAGAAGGCCGUCCUA [jl-ex3-4.47 ViennaUCT mod] (Eterna round: R97, puzzle: Exclusion 3)	15.7	–	14.2	–	–	–
AUUUUGUGAGGAUAUGUGGCUUCGAUCGUGAAAUCGAGGCUACAGAAGGCACAUGAGGAUCACCCAUGUUCCUA [salish99_ex4_r4_117] (Eterna round: R97, puzzle: Exclusion 4)	178	–	19.6	–	–	–
CAAAGAUAAGGAUAUUGAAGGUUCGACAUGAGGAUCACCCAUGUUAUGUUGGAAAAGGGACAAGAAGGUAUGAAAU [salish99_ex5_r4_213] (Eterna round: R97, puzzle: Exclusion 5)	41.5	–	40.3	–	–	–
CAAGUGUUAGGAUAUACCAGUUAAAUGCAGCUGCCGUCGGAGUAGAAGGGACAUGAGGAUCACCCAUGUCGGGA [Eternabot (L1) Solution 28] (Eterna round: R97, puzzle: Exclusion 4)	46.1	–	35.1	–	–	–
CAAUAACAAGCGAGAUCCUACAUGAGGAUCACCCAUGUGCUCGUCUUAUAAAGUACUAUCACGAAAGUGAUAGUACA [Mat - Sensor v3 - turn-off var 1 - Eli Mod - D63] (puzzle: Sensor v3, turn-off variant 1)	–	–	–	19.6	34	14.9
CAAUGACAUGAGGAUCACCCAUGUGAGGAUAUGGAGCGCGACCGCGCGGUCGCGUACACCAGAAGGCGCAGGAA [1st #69] (Eterna round: R97, puzzle: Exclusion 1)	59.7	–	29.4	–	–	–
CACCUACAUGAGGAUCACCCAUGUCAGGAUAUCUUUGCUAAUAUGAAUAGAUGCGUAAAGAGAAGGGACAUUUC [EX1 C.8] (Eterna round: R97, puzzle: Exclusion 1)	27	–	14.9	–	–	–
CAGAAACAUGAGGAUCACCCAUGUGAGGAUAUGCGUACGUUGUCCGUAGGCGACGUGCGCAGAAGGCGCAAAGG [Mat - Mod of JL D85] (puzzle: Exclusion 1)	–	–	–	115	59.3	116
CAGGAACCAGCAGGAUAUGUGCGGCUGCUAACGUGAACCAACAUGAGGAUCACCCAUGUAGGCACGCAGAAGGGCUCAGCCUGC [Orgevebe] (Eterna round: R96, puzzle: Exclusion NG 2)	8.78	10.6	13.5	–	–	–
CAGGUGUAAGGAUAUACCGGAUGGUCCAAAGCUUGGCAAAGACAUGAGGAUCACCCAUGUAGAAGGUACGUCCG [Eternabot (Original) Solution 21] (Eterna round: R97, puzzle: Exclusion 2)	313	–	383	–	–	–
CAGUACAGAGGAUAUACAUGAGGAUCACCCAUGUGUUUCAGCUAGGAGACUAGCGAAAGUAGAAGGCUGUACUU [salish99_ex3_r4_002] (Eterna round: R97, puzzle: Exclusion 3)	23	–	11.3	–	–	–
CAGUACUGAGGAUAUACAUGAGGAUCACCCAUGUGAGAAAUACUAGUGAGGUCGAUUAGUAGAAGGCAGUACUG [Mat - Exclusion 3 - Eli Mod - D31] (Eterna round: R97, puzzle: Exclusion 3)	761	–	35.4	–	–	–
CAGUACUGAGGAUAUACAUGAGGAUCACCCAUGUGUACCAGCUAGGAUACUAGCAAAAGUAGAAGGCAGUACUG [Mat - Exclusion 3 - Eli Mod - D21] (Eterna round: R97, puzzle: Exclusion 3)	31.2	–	19.5	–	–	–
CAGUACUGAGGAUAUACAUGAGGAUCACCCAUGUGUCCCAGCUAGGAUACUAGCAAAGGUAGAAGGCAGUACUG [Mat - Exclusion 3 - Eli Mod - D15] (Eterna round: R97, puzzle: Exclusion 3)	945	–	39.2	–	–	–
CAGUACUGAGGAUAUACAUGAGGAUCACCCAUGUGUCCCGGCUAGGAAACUAGCAAAAGUAGAAGGCAGUACUG [Fiskers Ex 3 828 mod 2] (Eterna round: R96, puzzle: Exclusion 3)	494	21.6	24.1	–	–	–
